Results published in US20210206875A1, “ERBB-2 TARGETING AGENT AND A BISPECIFIC ANTIBODY WITH ANTIGEN-BINDING SITES THAT BIND AN EPITOPE ON AN EXTRACELLULAR PART OF ERB-2 AND ERBB-3, FOR TREATMENT OF AN INDIVIDUAL WITH AN ERBB-2, ERBB-2/ERBB-3 POSITIVE TUMOUR” (Merus N.V., priority 2017, published 2021).

Target: Erbb-3-Fc (RND systems) (UniProt P21860)
Assay: SPR (Biacore T100), monovalent affinity; column head 'KD on Her3 (nM)'; PB4188 on CM5 chip, Her3-Fc in solution

Kd: 3.9 nM
Substance: PB4188 (MF3958 x MF3178) (bispecific antibody)
